{"source": "patent US20240174755A1", "about": "(published 2024)", "binders": {"B1": {"name": "QPD-1D4 (VHH)", "VHH": "EVQLVESGGGLVQAGDSLRLSCAVSGRAQSRDVVGWFRQAPGKEREFLALVTRSYSTYYGASVKGRFTISRDNAKNTVHLEMNSLKPEDTGVYYCAADQGFCSGSGCYDWRTFHVWGQGTQVTVSS", "notes": "Purified, unconjugated VHH; also called VHH 1D4"}, "B2": {"name": "1E12-biotin (VHH)", "VHH": "EVQLVESGGGLVQAGGSLRLSCAPSERSFSAYLMGWFRQAQGKEREFVAAWRWPTSTTYYSDSGKGRFTITGDNAKNTVELEMNSLKPEDTAVYYCAARRGILYGPATSPTAYDFWGQGTQVTVSS", "modifications": "Biotin-maleimide on the C-terminal cysteine of the C-Direct tag", "notes": "ID NO: 31 or 32; also called VHH 1E12-biotin; biotin-conjugated 1E12; not shown: C-terminal C-Direct tag with a free cysteine and an EPEA purification tag (vector pYQVQ11)"}, "B3": {"name": "1E12-Flag-His (VHH)", "VHH": "B2 VHH", "notes": "Made in E. coli; ID NO: 31 or 32 (N-terminal residue differs); also called VHH 1E12 (flag-his-tagged); tagged VHH 1E12; not shown: C-terminal FLAG-His tag from vector pMEK222"}}, "key": {"[1]": {"molecular_target": "human PDGFR β ECD (U-protein Express, Utrecht) (human) (UniProt P09619)", "test": "dose response ELISA on immobilized PDGFR β"}, "[2]": {"molecular_target": "human PDGFR β ECD (U-protein Express, Utrecht) (human) (UniProt P09619)", "test": "dose response ELISA, PDGFR β ECD coated at 2 µg/ml, rabbit anti-VHH detection"}, "[3]": {"molecular_target": "T1, human PDGFR β extra-cellular domain (ECD), Fc- and His-tagged (Sino Biological) (human, UniProt P09619 33-532)", "T1 construct": "extracellular domain; Bought; also called hECD; Fc/His-tagged PDGFR β ECD; not shown: Fc tag and His tag", "test": "SPR (Biacore 3000), Fc/His PDGFR β ECD captured on protein A; 1D4 construct not stated", "protocol": "(§1) FIG. 11: VHH (flag-his-tagged, or conjugated with HL488, NOTA or 800 CW) binding to human extracellular domain (ECD) of PDGFR β assessed with surface plasmon resonance (SPR). Fc/His-tagged PDGFR β ECD was bound to protein A chemically conjugated to CM4 sensor chip. Binding of VHHs was tested at 0.39-50 nM. Shown are representative SPR Biacore traces of tagged or conjugated 1B5 VHH (panels A); tagged or conjugated 1D4 VHH (panels B); tagged or conjugated 1H4 VHH (panels C) or tagged VHH 1E12 (panel D).\n(§2) SPR analysis was performed using the Biacore 3000 instrument (GE Healthcare). Protein A was chemically bound to a CM4 sensor chip (GE Healthcare) according to the primary amine procedure to approximately 2100 response units (RU). Fc/His-tagged PDGFR β ECD at 0.4-2.07 ng/ul was bound to protein A at flow rate of 35 ul/min. Run buffer HBS-EP (GE Healthcare; 0.01 M HEPES pH 7.4, 0.15 M NaCl, 3 mM EDTA, 0.005% v/v Surfactant P20) was used for VHHs 1D4, 1H4 and 1E12 conjugates at 50, 25, 12.5, 6.25, 3.13, 1.56, 0.78 and 0.39 nM. For 1B5 conjugates, HBS-EP+0.5 M NaSCN was as run buffer to reduce non-specific binding to a control path without PDGFR β ECD. A flow rate 70 ul/min was used for VHH injections in volumes of 150 ul. Regeneration of the sensor CM4 chip was performed by three successive injections of c. 30 s 10 mM glycine-HCl pH 2, 10 mM glycine-HCl pH 1.5, and 0.5 M NaSCN/10 mM NaOH."}, "[4]": {"molecular_target": "T2, human EGFR/HER1/ErbB1 Protein (His Tag, Sino Biological; Cat. Number 10001-H08H) (human, UniProt P00533 25-645)", "T2 construct": "Bought; construct not described; not shown: His tag", "test": "direct ELISA, EGFR coated, streptavidin-HRP detection", "protocol": "(§3) 96-well maxisorp (Nunc) immunosorp plates were coated with 2 ug/ml of human PDGFRa (Sino Biological; Cat. Number; 10556-HCCH) or 2 ug/ml human EGFR/HER1/ErbB1 Protein (His Tag, Sino Biological; Cat. Number; 10001-H08H) in PBS, 100 ul per well, at 4C overnight. Wells were washed thrice in PBS. Unspecific binding sites were blocked in 4% BSA/PBS for 1 h at RT, followed by washing thrice in PBS. VHH-biotin conjugates, diluted at 0.01-100 nM in 1% BSA/PBS, were incubated for 1 h at RT, followed by washing thrice in PBS. Streptavidin-horseradish peroxidase (HRP; GeneTex) was diluted 1:40,000 in 1% BSA/PBS and was incubated for 1 h at RT. PDGFRa or EGFR was detected with positive control antibodies rabbit anti-human PDGFRa/CD140a Antibody, (Cat no: 10556-R065) or rabbit anti-human EGFR/HER1/ErbB1 (Catalog no: 10001-R021, both from Sino Biological) diluted in 1% BSA/PBS at 1:5000 and were incubated for 1 h at RT, shaking. Secondary HRP-conjugated anti-rabbit-antibody was diluted at 1:5000 in 1% BSA/PBS and was incubated for 1 h at RT, shaking. Wells were washed 6 times in PBS. o-Phenylenediamine dihydrochloride (OPD; Sigma-Aldrich) was used as HRP substrate at 0.4 mg/ml in 0.05 M phosphate-citrate buffer pH 5.0 with 0.03% sodium perborate (Sigma-Aldrich), prepared according to the manufacturer's recommendations, and was used in volume of 100 ul per well. Reaction was allowed to proceed for 30 min at RT in dark, and was stopped by adding 50 ul of 1.5 M HCl. Optical density was measured at 492 nm on a Synergy H1 microplate reader (BioTek)."}, "[5]": {"molecular_target": "T3, human PDGFRa (Sino Biological; Cat. Number 10556-HCCH) (human, UniProt P16234 24-524, limits assumed)", "T3 construct": "Bought; construct not described; also called PDGFRα", "test": "direct ELISA, PDGFRa coated, streptavidin-HRP detection", "protocol": "as §3\nVHH-biotin binding to human PDGFRa was assessed using an ELISA, where wells were coated with PDGFRa, and VHH-biotin binding was detected using streptavidin-HRP with OPD as a substrate."}, "[6]": {"molecular_target": "T4, mouse PDGFR β ECD (R&D Systems) (mouse, UniProt P05622 32-531)", "T4 construct": "extracellular domain; Bought; also called mECD; mouse ECD", "T4 sequence (looked up)": "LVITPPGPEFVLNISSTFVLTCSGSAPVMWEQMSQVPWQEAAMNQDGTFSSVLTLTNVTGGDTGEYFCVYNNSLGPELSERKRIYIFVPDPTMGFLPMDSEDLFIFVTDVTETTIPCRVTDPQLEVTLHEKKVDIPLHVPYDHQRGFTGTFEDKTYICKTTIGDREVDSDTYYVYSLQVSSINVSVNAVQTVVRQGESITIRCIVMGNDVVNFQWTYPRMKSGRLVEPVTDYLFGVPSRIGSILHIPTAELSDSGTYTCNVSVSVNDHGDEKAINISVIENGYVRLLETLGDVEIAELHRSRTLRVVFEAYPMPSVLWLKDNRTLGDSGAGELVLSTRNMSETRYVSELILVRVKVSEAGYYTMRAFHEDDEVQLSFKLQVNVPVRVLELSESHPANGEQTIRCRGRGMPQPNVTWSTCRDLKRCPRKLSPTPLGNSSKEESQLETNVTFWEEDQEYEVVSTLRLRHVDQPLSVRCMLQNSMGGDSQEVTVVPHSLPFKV", "test": "biotin-streptavidin ELISA, mouse PDGFR β ECD coated at 4 ug/ml", "protocol": "In this example, the binding affinity of biotin-conjugated VHHs 1B5 and 1E12 to either human or mouse PDGFR β extra-cellular domain (ECD) was assessed using biotin-streptavidin ELISA. Human or mouse PDGFR β ECD was coated on immunoassay wells, where 1B5-biotin or 1E12-biotin were captured. Binding was detected using streptavidin-HRP and ODP as a substrate.\nELISA Method 96-well maxisorp (Nunc) immunosorp plates were coated with 1 ug/ml or 2 ug/ml of PDGFR β extracellular domain (ECD; Fc- and His-tagged, Sino Biological) or mouse PDGFR β ECD (R&D Systems) 4 ug/ml in PBS, 100 ul per well, at 4C overnight. Wells were washed thrice in PBS. Unspecific binding sites were blocked in 4% BSA/PBS for 1h at RT, followed by washing thrice in PBS. VHHs 1B5-biotin or 1E12-biotin, diluted at 0.01-100 nM in 1% BSA/PBS, was allowed to bind on ECD for 1 h at RT, followed by washing thrice in PBS. Streptavidin-horseradish peroxidase (HRP; GeneTex) was diluted 1:10,000 in 1% BSA/PBS and was incubated for 1 h at RT. […] Optical density was measured at 492 nm on a Synergy H1 microplate reader (BioTek)."}, "[7]": {"molecular_target": "T1, human PDGFR β extra-cellular domain …", "test": "SPR (Biacore 3000), Fc/His PDGFR β ECD captured on protein A; only 1E12-Flag-His was run in SPR", "protocol": "as §1, §2"}}, "data": [{"binder": "B1", "values": [{"measurement": "apparent binding affinity", "setting": "[1]", "value": 0.5, "unit": "nM"}, {"measurement": "apparent affinity", "setting": "[2]", "value": "< 1", "unit": "nM"}, {"measurement": "Kd", "setting": "[3]", "value": "~0.02", "unit": "nM"}]}, {"binder": "B2", "values": [{"measurement": "binding result", "setting": "[4]", "value": "no binding (tested: 0.01-100 nM)"}, {"measurement": "binding result", "setting": "[5]", "value": "no binding (tested: 0.01-100 nM)"}, {"measurement": "EC50", "setting": "[6]", "value": 1.1, "unit": "nM"}]}, {"binder": "B3", "values": [{"measurement": "Kd", "setting": "[7]", "value": "~100", "unit": "nM"}]}]}
